T1: GFP-9S library array, motif 4 ND N98Q;D124P (synthetic construct, N98Q;D124P)
T1 chain: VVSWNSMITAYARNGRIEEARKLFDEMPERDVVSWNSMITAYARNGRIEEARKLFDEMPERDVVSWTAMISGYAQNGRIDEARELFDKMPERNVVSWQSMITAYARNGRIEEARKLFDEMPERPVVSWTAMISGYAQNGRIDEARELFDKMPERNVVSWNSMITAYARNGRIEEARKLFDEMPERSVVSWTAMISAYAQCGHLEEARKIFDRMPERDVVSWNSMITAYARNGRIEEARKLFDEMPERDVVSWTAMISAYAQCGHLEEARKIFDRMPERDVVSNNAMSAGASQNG

T2: GFP-9S library array, motif 4 ND N98L;D124L (synthetic construct, N98L;D124L)
T2 chain: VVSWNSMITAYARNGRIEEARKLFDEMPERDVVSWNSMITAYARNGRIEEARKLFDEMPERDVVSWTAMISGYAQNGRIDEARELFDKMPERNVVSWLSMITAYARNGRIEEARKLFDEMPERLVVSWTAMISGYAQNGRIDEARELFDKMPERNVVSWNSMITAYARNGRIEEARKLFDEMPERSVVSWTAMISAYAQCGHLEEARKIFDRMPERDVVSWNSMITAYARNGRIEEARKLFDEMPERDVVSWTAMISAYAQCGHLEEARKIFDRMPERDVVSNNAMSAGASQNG

T3: GFP-9S library array, motif 4 ND N98F;D124N (synthetic construct, N98F;D124N)
T3 chain: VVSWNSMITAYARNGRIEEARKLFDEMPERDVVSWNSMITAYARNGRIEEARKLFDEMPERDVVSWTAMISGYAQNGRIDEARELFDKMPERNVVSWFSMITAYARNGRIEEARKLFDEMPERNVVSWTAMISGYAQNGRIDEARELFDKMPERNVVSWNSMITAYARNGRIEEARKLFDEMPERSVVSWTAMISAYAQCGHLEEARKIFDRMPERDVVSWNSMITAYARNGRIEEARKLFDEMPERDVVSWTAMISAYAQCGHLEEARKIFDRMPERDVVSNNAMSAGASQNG

T4: GFP-9S library array, motif 4 ND N98G;D124T (synthetic construct, N98G;D124T)
T4 chain: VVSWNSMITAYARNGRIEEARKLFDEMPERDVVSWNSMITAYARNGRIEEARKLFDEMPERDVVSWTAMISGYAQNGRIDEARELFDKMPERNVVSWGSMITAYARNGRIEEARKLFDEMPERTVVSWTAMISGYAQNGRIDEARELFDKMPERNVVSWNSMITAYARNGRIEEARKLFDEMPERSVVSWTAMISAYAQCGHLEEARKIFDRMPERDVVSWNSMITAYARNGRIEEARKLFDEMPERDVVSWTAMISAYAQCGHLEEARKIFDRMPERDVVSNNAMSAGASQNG

T5: GFP-9S library array, motif 4 ND N98K;D124Y (synthetic construct, N98K;D124Y)
T5 chain: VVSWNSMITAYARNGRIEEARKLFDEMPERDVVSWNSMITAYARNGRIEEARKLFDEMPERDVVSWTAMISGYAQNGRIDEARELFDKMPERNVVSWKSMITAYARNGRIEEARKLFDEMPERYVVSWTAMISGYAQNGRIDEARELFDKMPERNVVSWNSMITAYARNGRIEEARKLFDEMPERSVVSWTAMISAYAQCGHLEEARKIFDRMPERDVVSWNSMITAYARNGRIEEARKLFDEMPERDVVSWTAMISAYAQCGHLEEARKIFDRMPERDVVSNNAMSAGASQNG


Tests used:
Assay in all cases: high-throughput RNA pulldown from lysate on Ni-NTA beads; HRP: 50 mM Tris pH 8, 150 mM NaCl, 1 mM beta-mercaptoethanol, 50 ug/ml BSA, 3 ug/ml yeast RNA, 0.5% heparin; ITC and FP: Tris pH 8, 200 mM KCl, 5% glycerol; MST: 50 mM Tris pH 8, 200 mM NaCl, 1 mM DTT, BSA, heparin, 0.05% Tween 20
Conditions in all cases: tags: N-terminal His-eGFP
[1] = biological target: T1, GFP-9S library array, motif 4 ND …
[2] = biological target: T2, GFP-9S library array, motif 4 ND …
[3] = biological target: T3, GFP-9S library array, motif 4 ND …
[4] = biological target: T4, GFP-9S library array, motif 4 ND …
[5] = biological target: T5, GFP-9S library array, motif 4 ND …

| Binder | Kd ([1]; label: 5' IRDye 800CW) | Kd ([2]; label: 5' IRDye 800CW) | Kd ([3]; label: 5' IRDye 800CW) | Kd ([4]; label: 5' IRDye 800CW) | Kd ([5]; label: 5' IRDye 800CW) | Kd ([1]; label: 5' Cy5) | Kd ([2]; label: 5' Cy5) | Kd ([3]; label: 5' Cy5) | Kd ([4]; label: 5' Cy5) | Kd ([5]; label: 5' Cy5) |
| --- | --- | --- | --- | --- | --- | --- | --- | --- | --- | --- |
| AUUAUACGUGA (ssRNA) [IR-rpoA-U] | 219 nM | 158 nM | 112 nM | 236 nM | 128 nM |  |  |  |  |  |
| AUUAGACGUGA (ssRNA) [Cy5-rpoA-G] |  |  |  |  |  | 138 nM | 76.1 nM | 101 nM | 436 nM | 49.3 nM |
| AUUACACGUGA (ssRNA) [Cy5-rpoA] |  |  |  |  |  | 135 nM | 74.9 nM | 81.4 nM | 169 nM | 62.5 nM |
| AUUAAACGUGA (ssRNA) [IR-rpoA-A] | 259 nM | 157 nM | 196 nM | 108 nM | 115 nM |  |  |  |  |  |
